Tested on: Escherichia coli TOP10
Test: shrunken log2 fold change of peptide-encoding DNA abundance (4.5 h post-induction vs induction); higher = less antimicrobial activity (less host growth inhibition)
Conditions: time post-induction: 4.5 h; library: site-saturation at positions 5, 18, 19, 20
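Also: peptides expressed intracellularly from a pBAD plasmid library in pooled LB shake-flask culture, induced with 0.3% L-arabinose, DNA abundance read by NGS, three biological replicates, DESeq2 with apeglm shrinkage.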

Row | Sequence | shrunken log2 fold change
1 | RRIRERPPRLPRPRPRPTCTPRP | 0.199
2 | RRIRERPPRLPRPRPRPKCSPRP | -0.0163
3 | RRIRSRPPRLPRPRPRPHHHPRP | -0.736
4 | RRIRRRPPRLPRPRPRPPNKPRP | 0.333
5 | RRIRVRPPRLPRPRPRPIHNPRP | -0.554
6 | RRIRYRPPRLPRPRPRPFCYPRP | -0.432
7 | RRIRIRPPRLPRPRPRPRKKPRP | 0.247
8 | RRIRKRPPRLPRPRPRPIYFPRP | 0.216
9 | RRIRWRPPRLPRPRPRPHTIPRP | -0.533
10 | RRIRTRPPRLPRPRPRPSAFPRP | -0.0245
11 | RRIRYRPPRLPRPRPRPLMMPRP | -0.692
12 | RRIRKRPPRLPRPRPRPVMHPRP | -0.0631
13 | RRIRTRPPRLPRPRPRPFLYPRP | -0.786
14 | RRIRDRPPRLPRPRPRPYNAPRP | -0.0556
15 | RRIRFRPPRLPRPRPRPPKWPRP | 0.286
16 | RRIRMRPPRLPRPRPRPDWDPRP | 0.211
17 | RRIRTRPPRLPRPRPRPSVSPRP | -0.386
18 | RRIRIRPPRLPRPRPRPDCLPRP | 0.0966
19 | RRIRRRPPRLPRPRPRPPATPRP | 0.958
20 | RRIRCRPPRLPRPRPRPCDAPRP | -0.466
21 | RRIRYRPPRLPRPRPRPECLPRP | -0.171
22 | RRIRCRPPRLPRPRPRPGPPPRP | 0.942
23 | RRIRNRPPRLPRPRPRPVYNPRP | -0.381
24 | RRIRCRPPRLPRPRPRPLQPPRP | -0.0133
25 | RRIRCRPPRLPRPRPRPKHNPRP | -0.325

Row | Sequence | shrunken log2 fold change
26 | RRIRGRPPRLPRPRPRPAHQPRP | 0.65
27 | RRIRWRPPRLPRPRPRPAMEPRP | 0.348
28 | RRIRWRPPRLPRPRPRPWLMPRP | 0.116
29 | RRIRMRPPRLPRPRPRPGPPPRP | 1.23
30 | RRIRLRPPRLPRPRPRPLHRPRP | -0.226
31 | RRIRHRPPRLPRPRPRPRSNPRP | -0.253
32 | RRIRRRPPRLPRPRPRPVVTPRP | 0.911
33 | RRIRKRPPRLPRPRPRPRASPRP | 0.675
34 | RRIRYRPPRLPRPRPRPYFGPRP | 0.0143
35 | RRIRKRPPRLPRPRPRPSVDPRP | 0.0884
36 | RRIRSRPPRLPRPRPRPCFLPRP | -0.642
37 | RRIRQRPPRLPRPRPRPHSEPRP | -0.0749
38 | RRIRGRPPRLPRPRPRPHVSPRP | 0.396
39 | RRIRERPPRLPRPRPRPINRPRP | -0.017
40 | RRIRHRPPRLPRPRPRPSKIPRP | -0.517
41 | RRIRLRPPRLPRPRPRPIISPRP | -0.513
42 | RRIRERPPRLPRPRPRPDHGPRP | -0.00973
43 | RRIRDRPPRLPRPRPRPREFPRP | -0.0261
44 | RRIRGRPPRLPRPRPRPTHQPRP | 0.615
45 | RRIRMRPPRLPRPRPRPMMGPRP | 0.0255
46 | RRIRSRPPRLPRPRPRPVADPRP | 0.0874
47 | RRIRFRPPRLPRPRPRPECSPRP | 0.411
48 | RRIRARPPRLPRPRPRPLMPPRP | 0.197
49 | RRIRERPPRLPRPRPRPGHIPRP | -0.0236
50 | RRIRMRPPRLPRPRPRPRKKPRP | 1.43

Row | Sequence | shrunken log2 fold change
51 | RRIRSRPPRLPRPRPRPLRIPRP | -0.0455
52 | RRIRARPPRLPRPRPRPMALPRP | 0.272
53 | RRIRCRPPRLPRPRPRPWYDPRP | -0.0194
54 | RRIRARPPRLPRPRPRPDSGPRP | 0.18
55 | RRIRGRPPRLPRPRPRPYPQPRP | 0.12
56 | RRIRERPPRLPRPRPRPIGWPRP | 0.0874
57 | RRIRMRPPRLPRPRPRPQEKPRP | 0.01
58 | RRIRYRPPRLPRPRPRPMYMPRP | -2.38
59 | RRIRNRPPRLPRPRPRPNHRPRP | -0.216
60 | RRIRMRPPRLPRPRPRPLLWPRP | 0.914
61 | RRIRKRPPRLPRPRPRPTINPRP | -0.184
62 | RRIRCRPPRLPRPRPRPQRVPRP | -0.158
63 | RRIRNRPPRLPRPRPRPNKKPRP | -0.198
64 | RRIRERPPRLPRPRPRPCYRPRP | -0.357
65 | RRIRFRPPRLPRPRPRPYCTPRP | -0.873
66 | RRIRNRPPRLPRPRPRPIMCPRP | -0.148
67 | RRIRLRPPRLPRPRPRPAQIPRP | 0.214
68 | RRIRDRPPRLPRPRPRPCKIPRP | -0.0385
69 | RRIRPRPPRLPRPRPRPRMGPRP | 0.38
70 | RRIRRRPPRLPRPRPRPSTDPRP | -0.14
71 | RRIRMRPPRLPRPRPRPWSSPRP | -0.145
72 | RRIRGRPPRLPRPRPRPSEPPRP | 0.413
73 | RRIRYRPPRLPRPRPRPSYYPRP | -1.66
74 | RRIRRRPPRLPRPRPRPRILPRP | -0.143
75 | RRIRFRPPRLPRPRPRPLKGPRP | -0.128

Row | Sequence | shrunken log2 fold change
76 | RRIRNRPPRLPRPRPRPQFVPRP | -0.0944
77 | RRIRGRPPRLPRPRPRPHCGPRP | -0.0798
78 | RRIRRRPPRLPRPRPRPFLAPRP | 0.925
79 | RRIRYRPPRLPRPRPRPASPPRP | -0.161
80 | RRIRFRPPRLPRPRPRPCCGPRP | -0.221
81 | RRIRLRPPRLPRPRPRPLIMPRP | -0.435
82 | RRIRWRPPRLPRPRPRPNFVPRP | 0.292
83 | RRIRHRPPRLPRPRPRPCYAPRP | -0.291
84 | RRIRVRPPRLPRPRPRPHGGPRP | -0.0243
85 | RRIRMRPPRLPRPRPRPPRFPRP | 1.23
86 | RRIRWRPPRLPRPRPRPYASPRP | -0.121
87 | RRIRKRPPRLPRPRPRPHSWPRP | 0.0385
88 | RRIRNRPPRLPRPRPRPPTRPRP | 0.29
89 | RRIRERPPRLPRPRPRPMISPRP | -0.11
90 | RRIRYRPPRLPRPRPRPLGSPRP | -0.651
91 | RRIRDRPPRLPRPRPRPSWNPRP | -0.365
92 | RRIRGRPPRLPRPRPRPTCSPRP | 0.991
93 | RRIRCRPPRLPRPRPRPMYFPRP | -0.796
94 | RRIRCRPPRLPRPRPRPCFGPRP | -0.137
95 | RRIRSRPPRLPRPRPRPFCQPRP | -0.0847
96 | RRIRERPPRLPRPRPRPQVPPRP | -0.103
97 | RRIRDRPPRLPRPRPRPSRWPRP | 0.0623
98 | RRIRKRPPRLPRPRPRPPKMPRP | 0.383
99 | RRIRERPPRLPRPRPRPFLQPRP | -0.172
100 | RRIRYRPPRLPRPRPRPWYKPRP | -0.0225

Row | Sequence | shrunken log2 fold change
101 | RRIRARPPRLPRPRPRPLGDPRP | 0.281
102 | RRIRFRPPRLPRPRPRPAICPRP | 0.00851
103 | RRIRFRPPRLPRPRPRPSHCPRP | -0.28
104 | RRIRYRPPRLPRPRPRPQQAPRP | -0.0122
105 | RRIRKRPPRLPRPRPRPTLTPRP | 0.283
106 | RRIRWRPPRLPRPRPRPWCRPRP | -0.000362
107 | RRIRWRPPRLPRPRPRPFHTPRP | -0.171
108 | RRIRMRPPRLPRPRPRPRVVPRP | 0.246
109 | RRIRTRPPRLPRPRPRPHITPRP | -0.625
110 | RRIRQRPPRLPRPRPRPDCMPRP | 0.00805
111 | RRIRRRPPRLPRPRPRPCVWPRP | 0.999
112 | RRIRYRPPRLPRPRPRPAITPRP | -0.933
113 | RRIRSRPPRLPRPRPRPDMPPRP | -0.0754
114 | RRIRVRPPRLPRPRPRPPYNPRP | -0.1
115 | RRIRIRPPRLPRPRPRPDPKPRP | -0.183
116 | RRIRQRPPRLPRPRPRPDIEPRP | -0.32
117 | RRIRSRPPRLPRPRPRPIQSPRP | -0.0288
118 | RRIRNRPPRLPRPRPRPPHNPRP | 0.216
119 | RRIRVRPPRLPRPRPRPHRGPRP | -0.0736
120 | RRIRCRPPRLPRPRPRPTYIPRP | -0.959
121 | RRIRWRPPRLPRPRPRPQEHPRP | 0.0218
122 | RRIRYRPPRLPRPRPRPLEPPRP | -0.124
123 | RRIRHRPPRLPRPRPRPHIYPRP | -0.169
124 | RRIRDRPPRLPRPRPRPFYMPRP | -0.735
125 | RRIRHRPPRLPRPRPRPNIWPRP | 0.0229

Row | Sequence | shrunken log2 fold change
126 | RRIRPRPPRLPRPRPRPELWPRP | 0.889
127 | RRIRMRPPRLPRPRPRPYPRPRP | 0.112
128 | RRIRGRPPRLPRPRPRPNFPPRP | 0.193
129 | RRIRPRPPRLPRPRPRPAKIPRP | 0.0125
130 | RRIRQRPPRLPRPRPRPWMFPRP | -0.374
131 | RRIRVRPPRLPRPRPRPKSQPRP | 0.309
132 | RRIRGRPPRLPRPRPRPFSNPRP | 0.064
133 | RRIRSRPPRLPRPRPRPCYTPRP | -0.0751
134 | RRIRYRPPRLPRPRPRPTISPRP | -0.893
135 | RRIRLRPPRLPRPRPRPYAEPRP | -0.101
136 | RRIRNRPPRLPRPRPRPCELPRP | -0.0966
137 | RRIRPRPPRLPRPRPRPYYWPRP | -0.0723
138 | RRIRWRPPRLPRPRPRPKAEPRP | -0.015
139 | RRIRKRPPRLPRPRPRPNLVPRP | -0.0428
140 | RRIRKRPPRLPRPRPRPVCAPRP | 0.904
141 | RRIRPRPPRLPRPRPRPTMYPRP | 0.125
142 | RRIRGRPPRLPRPRPRPAGTPRP | 0.752
143 | RRIRQRPPRLPRPRPRPPEYPRP | -0.245
144 | RRIRERPPRLPRPRPRPSVNPRP | -0.959
145 | RRIRHRPPRLPRPRPRPFMMPRP | -0.272
146 | RRIRKRPPRLPRPRPRPFIWPRP | -0.0554
147 | RRIRFRPPRLPRPRPRPKGEPRP | 0.35
148 | RRIRQRPPRLPRPRPRPSSHPRP | 0.0105
149 | RRIRWRPPRLPRPRPRPWWAPRP | -0.194
150 | RRIRPRPPRLPRPRPRPHNHPRP | -0.609

— the supplement of paper PMC9112550, “Optimization of the antimicrobial peptide Bac7 by deep mutational scanning” (BMC Biology, 2022)
